This passage reports inhibition of the co-precipitation in yos9Δ cells against wild-type cells results from PMC3315801.

For this assay, the target named is T1, CPY*-CPY fusion protein (S. cerevisiae) (UniProt P00729).
T1 sequence (P00729 whole entry, looked up): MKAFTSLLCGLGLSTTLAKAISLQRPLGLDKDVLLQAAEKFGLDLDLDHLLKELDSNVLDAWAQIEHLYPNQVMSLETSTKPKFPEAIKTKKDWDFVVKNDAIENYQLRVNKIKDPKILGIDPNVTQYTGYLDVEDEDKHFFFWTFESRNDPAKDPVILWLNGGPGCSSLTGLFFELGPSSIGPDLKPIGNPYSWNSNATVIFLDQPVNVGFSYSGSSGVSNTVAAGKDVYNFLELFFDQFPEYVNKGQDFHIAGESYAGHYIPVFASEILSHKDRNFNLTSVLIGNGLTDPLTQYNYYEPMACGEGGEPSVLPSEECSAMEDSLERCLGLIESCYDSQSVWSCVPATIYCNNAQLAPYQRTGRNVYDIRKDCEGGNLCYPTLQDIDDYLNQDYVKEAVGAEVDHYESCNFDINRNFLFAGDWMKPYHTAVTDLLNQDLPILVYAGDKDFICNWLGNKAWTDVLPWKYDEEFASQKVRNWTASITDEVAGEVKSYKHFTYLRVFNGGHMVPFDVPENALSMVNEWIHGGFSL
As to the kind of experiment: co-IP.

B1: Hrd1p (enzyme)
chain: MVPENRRKQLAIFVVVTYLLTFYCVYSATKTSVSFLQVTLKLNEGFNLMVLSIFILLNSTLLWQLLTKLLFGELRLIEHEHIFERLPFTIINTLFMSSLFHERYFFTVAFFGLLLLYLKVFHWILKDRLEALLQSINDSTTMKTLIFSRFSFNLVLLAVVDYQIITRCISSIYTNQKSDIESTSLYLIQVMEFTMLLIDLLNLFLQTCLNFWEFYRSQQSLSNENNHIVHGDPTDENTVESDQSQPVLNDDDDDDDDDRQFTGLEGKFMYEKAIDVFTRFLKTALHLSMLIPFRMPMMLLKDVVWDILALYQSGTSLWKIWRNNKQLDDTLVTVTVEQLQNSANDDNICIICMDELIHSPNQQTWKNKNKKPKRLPCGHILHLSCLKNWMERSQTCPICRLPVFDEKGNVVQTTFTSNSDITTQTTVTDSTGIATDQQGFANEVDLLPTRTTSPDIRIVPTQNIDTLAMRTRSTSTPSPTWYTFPLHKTGDNSVGSSRSAYEFLITNSDEKENGIPVKLTIENHEVNSLHGDGGEQIAKKIVIPDKFIQHI
For the molecule B1, the inhibition of the co-precipitation in yos9Δ cells against wild-type cells was determined as 70%.
